{"source": "the supplement of paper PMC10567573", "parents": {"B1": {"name": "DFFB (parent)", "chain": "KLNCDPSRIYKPQTRLKRKQPVRK"}, "B2": {"name": "EPB41L3 (parent)", "chain": "KKFLTLGSKFRYSGRTQAQTRRAS"}}}
{"variants_of": "B1", "assay": "protein stability index of a GFP-peptide fusion (GPS, HEK-293T) (PSI 1-6); higher = more stable", "details": "c terminus: a fixed tail appended"}
{"variant": "KLNCDTSRIYKPQTRLKRKQPVRK", "note": "[P6T]", "protein stability index": 3.56}
{"variant": "KLNCDWSRIYKPQTRLKRKQPVRK", "note": "[P6W]", "protein stability index": 3.08}
{"variant": "KLNCDASRIYKPQTRLKRKQPVRK", "note": "[P6A]", "protein stability index": 3.45}
{"variant": "KLNCDCSRIYKPQTRLKRKQPVRK", "note": "[P6C]", "protein stability index": 3.22}
{"variant": "KLNCDQSRIYKPQTRLKRKQPVRK", "note": "[P6Q]", "protein stability index": 3.62}
{"variant": "KLNCDNSRIYKPQTRLKRKQPVRK", "note": "[P6N]", "protein stability index": 3.79}
{"variant": "KLNCDISRIYKPQTRLKRKQPVRK", "note": "[P6I]", "protein stability index": 3.11}
{"variant": "KLNCDLSRIYKPQTRLKRKQPVRK", "note": "[P6L]", "protein stability index": 3.12}
{"variant": "KENCDPSRIYKPQTRLKRKQPVRK", "note": "[L2E]", "protein stability index": 4.52}
{"variant": "KTNCDPSRIYKPQTRLKRKQPVRK", "note": "[L2T]", "protein stability index": 4.12}
{"variant": "KANCDPSRIYKPQTRLKRKQPVRK", "note": "[L2A]", "protein stability index": 4.27}
{"variant": "KWNCDPSRIYKPQTRLKRKQPVRK", "note": "[L2W]", "protein stability index": 2.73}
{"variant": "KKNCDPSRIYKPQTRLKRKQPVRK", "note": "[L2K]", "protein stability index": 2.28}
{"variant": "KRNCDPSRIYKPQTRLKRKQPVRK", "note": "[L2R]", "protein stability index": 4.01}
{"variant": "KDNCDPSRIYKPQTRLKRKQPVRK", "note": "[L2D]", "protein stability index": 4.89}
{"variant": "KINCDPSRIYKPQTRLKRKQPVRK", "note": "[L2I]", "protein stability index": 3.2}
{"variant": "KCNCDPSRIYKPQTRLKRKQPVRK", "note": "[L2C]", "protein stability index": 3.55}
{"variant": "KFNCDPSRIYKPQTRLKRKQPVRK", "note": "[L2F]", "protein stability index": 3.96}
{"variant": "KPNCDPSRIYKPQTRLKRKQPVRK", "note": "[L2P]", "protein stability index": 4.57}
{"variant": "KVNCDPSRIYKPQTRLKRKQPVRK", "note": "[L2V]", "protein stability index": 4.01}
{"variant": "KSNCDPSRIYKPQTRLKRKQPVRK", "note": "[L2S]", "protein stability index": 4.16}
{"variant": "KNNCDPSRIYKPQTRLKRKQPVRK", "note": "[L2N]", "protein stability index": 4.5}
{"variant": "KGNCDPSRIYKPQTRLKRKQPVRK", "note": "[L2G]", "protein stability index": 4.94}
{"variant": "KYNCDPSRIYKPQTRLKRKQPVRK", "note": "[L2Y]", "protein stability index": 3.55}
{"variant": "KQNCDPSRIYKPQTRLKRKQPVRK", "note": "[L2Q]", "protein stability index": 4.16}
{"variant": "KHNCDPSRIYKPQTRLKRKQPVRK", "note": "[L2H]", "protein stability index": 2.95}
{"variant": "KMNCDPSRIYKPQTRLKRKQPVRK", "note": "[L2M]", "protein stability index": 4.09}
{"variants_of": "B2", "assay": "protein stability index of a GFP-peptide fusion (GPS, HEK-293T) (PSI 1-6); higher = more stable", "details": "c terminus: a fixed tail appended"}
{"variant": "KKFLHLGSKFRYSGRTQAQTRRAS", "note": "[T5H]", "protein stability index": 2.82}
{"variant": "KKFLMLGSKFRYSGRTQAQTRRAS", "note": "[T5M]", "protein stability index": 2.74}
{"variant": "KKFLFLGSKFRYSGRTQAQTRRAS", "note": "[T5F]", "protein stability index": 1.84}
{"variant": "KKFLYLGSKFRYSGRTQAQTRRAS", "note": "[T5Y]", "protein stability index": 1.88}
{"variant": "KKFLTLGSKFRYSNRTQAQTRRAS", "note": "[G14N]", "protein stability index": 3.67}
{"variant": "KKFLTLGSKFRYSARTQAQTRRAS", "note": "[G14A]", "protein stability index": 3.42}
{"variant": "KKFLTLGSKFRYSKRTQAQTRRAS", "note": "[G14K]", "protein stability index": 3.1}
{"variant": "KPFLTLGSKFRYSGRTQAQTRRAS", "note": "[K2P]", "protein stability index": 2.84}
{"variant": "KWFLTLGSKFRYSGRTQAQTRRAS", "note": "[K2W]", "protein stability index": 2.31}
{"variant": "KEFLTLGSKFRYSGRTQAQTRRAS", "note": "[K2E]", "protein stability index": 2.47}
{"variant": "KKFLTLGSKFRYSGPTQAQTRRAS", "note": "[R15P]", "protein stability index": 2.58}
{"variant": "KKFLTLGSKFRYSGDTQAQTRRAS", "note": "[R15D]", "protein stability index": 3.81}
{"variant": "KKFLTLGSKFRYSGMTQAQTRRAS", "note": "[R15M]", "protein stability index": 2.49}
{"variant": "KKFLTLGSKTRYSGRTQAQTRRAS", "note": "[F10T]", "protein stability index": 3.54}
{"variant": "KKFLTLGSKVRYSGRTQAQTRRAS", "note": "[F10V]", "protein stability index": 2.92}
{"variant": "KKFLTLGSKCRYSGRTQAQTRRAS", "note": "[F10C]", "protein stability index": 3.11}
{"variant": "KKFLTLGSKFRYSGRTQPQTRRAS", "note": "[A18P]", "protein stability index": 2.92}
{"variant": "KKFLTLGSKFRYSGRTQHQTRRAS", "note": "[A18H]", "protein stability index": 2.49}
{"variant": "KKFLTLGSKFRYSGRTQTQTRRAS", "note": "[A18T]", "protein stability index": 3.1}
{"variant": "KKFLTLGSKFRYSGRTQSQTRRAS", "note": "[A18S]", "protein stability index": 3.19}
{"variant": "KKFLTLGSKFRYSGRTQYQTRRAS", "note": "[A18Y]", "protein stability index": 3.11}
{"variant": "KKFLTLGSKFRYSGRTQMQTRRAS", "note": "[A18M]", "protein stability index": 2.77}
{"variant": "KKFLTLGSKFRYSGRTQAFTRRAS", "note": "[Q19F]", "protein stability index": 2.1}
{"variant": "KKFLTLGHKFRYSGRTQAQTRRAS", "note": "[S8H]", "protein stability index": 3.01}
{"variant": "KKFLTLGCKFRYSGRTQAQTRRAS", "note": "[S8C]", "protein stability index": 2.04}
{"variant": "KKFLTLGFKFRYSGRTQAQTRRAS", "note": "[S8F]", "protein stability index": 2.43}
{"variant": "KKFLTLGSKFRYSGRTQAQTRRHS", "note": "[A23H]", "protein stability index": 3}
{"variant": "KKFLTLGSKFRYSGRTQAQTRRQS", "note": "[A23Q]", "protein stability index": 3.27}
{"variant": "KKFLTLGSKFRYSGRTQAQTRRGS", "note": "[A23G]", "protein stability index": 3.69}
{"variant": "LKFLTLGSKFRYSGRTQAQTRRAS", "note": "[K1L]", "protein stability index": 1.91}
{"variant": "DKFLTLGSKFRYSGRTQAQTRRAS", "note": "[K1D]", "protein stability index": 2.43}
{"variant": "IKFLTLGSKFRYSGRTQAQTRRAS", "note": "[K1I]", "protein stability index": 2.42}
{"variant": "RKFLTLGSKFRYSGRTQAQTRRAS", "note": "[K1R]", "protein stability index": 3.7}
{"variant": "KKFLTLGSQFRYSGRTQAQTRRAS", "note": "[K9Q]", "protein stability index": 1.79}
{"variant": "KKFLTLGSDFRYSGRTQAQTRRAS", "note": "[K9D]", "protein stability index": 2.01}
{"variant": "KKFLTLGSKFRYSGRTRAQTRRAS", "note": "[Q17R]", "protein stability index": 2.95}
{"variant": "KKFLTLGSKFRMSGRTQAQTRRAS", "note": "[Y12M]", "protein stability index": 3.9}
{"variant": "KKFLTLGSKFRASGRTQAQTRRAS", "note": "[Y12A]", "protein stability index": 4.58}
{"variant": "KKFLTLGSKFRYSGRTQAQTRVAS", "note": "[R22V]", "protein stability index": 2.64}
{"variant": "KKFLTLGSKFRYSGRTQAQTRPAS", "note": "[R22P]", "protein stability index": 2.52}
{"variant": "KKFLTLGSKFRYSGRTQAQTRTAS", "note": "[R22T]", "protein stability index": 3.24}
{"variant": "KKFLTLGSKFRYSGRTQAQTREAS", "note": "[R22E]", "protein stability index": 2.72}
{"variant": "KKFLTLGSKFRYSGRTQAQTRIAS", "note": "[R22I]", "protein stability index": 2.02}
{"variant": "KKFLTLYSKFRYSGRTQAQTRRAS", "note": "[G7Y]", "protein stability index": 3.02}
{"variant": "KKFLTLDSKFRYSGRTQAQTRRAS", "note": "[G7D]", "protein stability index": 3.3}
{"variant": "KKFLTLFSKFRYSGRTQAQTRRAS", "note": "[G7F]", "protein stability index": 2.4}
{"variant": "KKQLTLGSKFRYSGRTQAQTRRAS", "note": "[F3Q]", "protein stability index": 2.95}
{"variant": "KKSLTLGSKFRYSGRTQAQTRRAS", "note": "[F3S]", "protein stability index": 3.78}
{"variant": "KKFLTLGSKFGYSGRTQAQTRRAS", "note": "[R11G]", "protein stability index": 3.57}
{"variant": "KKFLTLGSKFRYSGRTQAQLRRAS", "note": "[T20L]", "protein stability index": 2.06}
{"variant": "KKFLTLGSKFRYSGRTQAQCRRAS", "note": "[T20C]", "protein stability index": 3.77}
{"variant": "KKFLTLGSKFRYSGRTQAQTERAS", "note": "[R21E]", "protein stability index": 2.2}
{"variant": "KKFLTLGSKFRYSGRTQAQTFRAS", "note": "[R21F]", "protein stability index": 1.98}
{"variant": "KKFLTLGSKFRYSGRTQAQTDRAS", "note": "[R21D]", "protein stability index": 2.69}
{"variant": "KKFLTLGSKFRYSGRTQAQTYRAS", "note": "[R21Y]", "protein stability index": 2.48}
{"variant": "KKFLTLGSKFRYSGRTQAQTARAS", "note": "[R21A]", "protein stability index": 1.96}
{"variant": "KKFLTLGSKFRYSGRTQAQTMRAS", "note": "[R21M]", "protein stability index": 1.86}
{"variant": "KKFLTLGSKFRYSGRFQAQTRRAS", "note": "[T16F]", "protein stability index": 2.94}
{"variant": "KKFLTLGSKFRYSGRAQAQTRRAS", "note": "[T16A]", "protein stability index": 2.53}
{"variant": "KKFLTLGSKFRYSGRVQAQTRRAS", "note": "[T16V]", "protein stability index": 2.74}
{"variant": "KKFLTLGSKFRYSGRLQAQTRRAS", "note": "[T16L]", "protein stability index": 2.52}
{"variant": "KKFLTLGSKFRYWGRTQAQTRRAS", "note": "[S13W]", "protein stability index": 2.91}
{"variant": "KKFLTLGSKFRYDGRTQAQTRRAS", "note": "[S13D]", "protein stability index": 2.85}
{"variant": "KKFLTLGSKFRYFGRTQAQTRRAS", "note": "[S13F]", "protein stability index": 2.67}
{"variant": "KKFLTLGSKFRYVGRTQAQTRRAS", "note": "[S13V]", "protein stability index": 2.01}
{"variant": "KKFLTLGSKFRYEGRTQAQTRRAS", "note": "[S13E]", "protein stability index": 4.01}
{"variant": "KKFLTPGSKFRYSGRTQAQTRRAS", "note": "[L6P]", "protein stability index": 3.57}
